The chains are these.
B1: CSNK1G1 (parent)
chain: GSLPWQGLKADTLKERYQKIGDTK
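Further: lentivirally expressed fusions sorted by FACS into six bins by GFP to DsRed ratio, PSI derived from sequencing read proportions per bin multiplied by bin number.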

In the series the parent is B1. Put plainly: protein stability index of a GFP-peptide fusion (GPS, HEK-293T) (PSI 1-6); higher = more stable. Conditions: c terminus: a fixed tail appended.
For the variant GSLPWQGLKADTLKMRYQKIGDTK [E15M], the protein stability index amounted to 3.51.
In the case of GSLPWQGLKADTLKVRYQKIGDTK [E15V] it was 3.31.
GSLPWQGLKADTLKDRYQKIGDTK [E15D]: the protein stability index was 4.25.
As to GSLPWQGLKADTLKFRYQKIGDTK [E15F], the protein stability index came to 3.56.
Take GSLPWQGLKADTLKHRYQKIGDTK [E15H]: the protein stability index was 3.43.
Take GSLPWQGLKADTLKPRYQKIGDTK [E15P]: the protein stability index amounted to 3.97.
As for GSLPWQGLKADTLKIRYQKIGDTK [E15I], the protein stability index turned out to be 3.26.
Regarding GSLPWQGLKADTLKNRYQKIGDTK [E15N], the protein stability index stood at 3.39.
The figure for GSLPWQGLKADTLKERYQPIGDTK [K19P] is 3.95; for GSLPWQGLKADTLKERYQRIGDTK [K19R] it is 3.75; for GSLPWQGLKADTLKERYQDIGDTK [K19D] it is 4.67.
For the variant GSLPWQGLKADTLKERYQVIGDTK [K19V], the protein stability index is 3.83.
The figure for GSLPWQGLKADTLKERYQGIGDTK [K19G] is 4.17; for GSLPWQGLKADTLKERYQLIGDTK [K19L] it is 3.74.
Consider GSLPWQGLKADTLKERYQEIGDTK [K19E], for which the protein stability index turned out to be 4.45.
GSLPWQGLKADTLKERYQTIGDTK [K19T]: the protein stability index amounted to 4.3.
On to GSLPWQGLKADTLKERYQHIGDTK [K19H], for which the protein stability index worked out at 4.24.
Regarding GSLPWQGLKADTLKERYQNIGDTK [K19N], the protein stability index is 4.35.
Turning to GSLPWQGLKADTLKERYQWIGDTK [K19W], the protein stability index turned out to be 2.83.
Regarding GSLPWQGLKADTLKERYQQIGDTK [K19Q], the protein stability index turned out to be 4.8.
For the variant GSLPHQGLKADTLKERYQKIGDTK [W5H], the protein stability index is 4.53.
Consider GSLPAQGLKADTLKERYQKIGDTK [W5A], for which the protein stability index amounted to 4.98.
Consider GSLPMQGLKADTLKERYQKIGDTK [W5M], for which the protein stability index was determined as 4.61.
For the variant GSLPGQGLKADTLKERYQKIGDTK [W5G], the protein stability index came out at 4.53.
Regarding GSLPVQGLKADTLKERYQKIGDTK [W5V], the protein stability index is 4.58.
With GSLPRQGLKADTLKERYQKIGDTK [W5R], the protein stability index amounted to 4.29.
On to GSLPTQGLKADTLKERYQKIGDTK [W5T], for which the protein stability index came out at 5.09.
On to GSLPPQGLKADTLKERYQKIGDTK [W5P], for which the protein stability index amounted to 4.62.
On to GSLPEQGLKADTLKERYQKIGDTK [W5E], for which the protein stability index is 5.42.
The figure for GSLPWQGLKADTIKERYQKIGDTK [L13I] is 4.48.
In the case of GSLPWQGLKADTRKERYQKIGDTK [L13R], the protein stability index is 4.27.
Regarding GSLPWQGLKADTCKERYQKIGDTK [L13C], the protein stability index worked out at 3.71.
As to GSLPWQGLKADTAKERYQKIGDTK [L13A], the protein stability index worked out at 3.96.
As to GSLPWQGLKADTTKERYQKIGDTK [L13T], the protein stability index is 4.65.
Turning to GSLPWQGLKADTFKERYQKIGDTK [L13F], the protein stability index was determined as 4.2.
The figure for GSLPWQGLKADTDKERYQKIGDTK [L13D] is 4.49; for GSLPWQGLKADTKKERYQKIGDTK [L13K] it is 4.15.
As for GSLPWQGLDADTLKERYQKIGDTK [K9D], the protein stability index amounted to 4.25.
The figure for GSLPWQGLIADTLKERYQKIGDTK [K9I] is 3.79; for GSLPWQGLCADTLKERYQKIGDTK [K9C] it is 3.93.
In the case of GSLPWQGLWADTLKERYQKIGDTK [K9W], the protein stability index is 3.58.
The figure for GSLPWQGLVADTLKERYQKIGDTK [K9V] is 3.77; for GSLPWQGLLADTLKERYQKIGDTK [K9L] it is 3.18.
Consider GSLPWQGLMADTLKERYQKIGDTK [K9M], for which the protein stability index turned out to be 3.87.
In the case of GSLPWQGLQADTLKERYQKIGDTK [K9Q] it was 3.89; in that of KSLPWQGLKADTLKERYQKIGDTK [G1K], 4.17.
Regarding SSLPWQGLKADTLKERYQKIGDTK [G1S], the protein stability index amounted to 3.97.
For the variant ESLPWQGLKADTLKERYQKIGDTK [G1E], the protein stability index amounted to 4.44.
ISLPWQGLKADTLKERYQKIGDTK [G1I]: the protein stability index came out at 3.52.
With PSLPWQGLKADTLKERYQKIGDTK [G1P], the protein stability index is 4.15.
As to QSLPWQGLKADTLKERYQKIGDTK [G1Q], the protein stability index turned out to be 4.03.
In the case of DSLPWQGLKADTLKERYQKIGDTK [G1D] it was 4.35; in that of GSLPWQALKADTLKERYQKIGDTK [G7A], 4.39.
With GSLPWQLLKADTLKERYQKIGDTK [G7L], the protein stability index was found to be 3.44.
On to GSLPWQPLKADTLKERYQKIGDTK [G7P], for which the protein stability index was 4.38.
In the case of GSLPWQWLKADTLKERYQKIGDTK [G7W], the protein stability index was found to be 3.52.
Regarding GSLPWQQLKADTLKERYQKIGDTK [G7Q], the protein stability index was 3.9.
With GSLPWQKLKADTLKERYQKIGDTK [G7K], the protein stability index is 3.75.
As to GSLPWQVLKADTLKERYQKIGDTK [G7V], the protein stability index was 3.65.
The figure for GSLPWQGLKADTLKERYQKIGDTW [K24W] is 2.95; for GSLPWQGLKADTLKERYQKIGDTR [K24R] it is 3.72.
In the case of GSLPWQGLKADTLKERYQKIGDTL [K24L], the protein stability index amounted to 3.3.
For GSLPWQGLKADTLKERYQKIGDTA [K24A], the protein stability index turned out to be 4.01.
For the variant GSLPWQGLKADTLKERYQKIGDTQ [K24Q], the protein stability index came out at 4.07.
Take GSAPWQGLKADTLKERYQKIGDTK [L3A]: the protein stability index was determined as 4.38.
With GSYPWQGLKADTLKERYQKIGDTK [L3Y], the protein stability index amounted to 4.09.
Consider GSMPWQGLKADTLKERYQKIGDTK [L3M], for which the protein stability index amounted to 4.54.
Regarding GSKPWQGLKADTLKERYQKIGDTK [L3K], the protein stability index is 4.12.
For the variant GSCPWQGLKADTLKERYQKIGDTK [L3C], the protein stability index amounted to 4.31.
The figure for GSPPWQGLKADTLKERYQKIGDTK [L3P] is 3.88; for GSGPWQGLKADTLKERYQKIGDTK [L3G] it is 4.42.
For the variant GSVPWQGLKADTLKERYQKIGDTK [L3V], the protein stability index was found to be 4.37.
The figure for GSQPWQGLKADTLKERYQKIGDTK [L3Q] is 4.63; for GSLPWQGLKADTLKEEYQKIGDTK [R16E] it is 4.69.
In the case of GSLPWQGLKADTLKENYQKIGDTK [R16N] it was 4.68; in that of GSLPWQGLKADTLKEPYQKIGDTK [R16P], 4.37; in that of GSLPWQGLKADTLKEDYQKIGDTK [R16D], 4.54.
In the case of GSLPWQGLKAHTLKERYQKIGDTK [D11H] it was 3.69; in that of GSLPWQGLKAWTLKERYQKIGDTK [D11W], 2.9.
On to GSLPWQGLKAATLKERYQKIGDTK [D11A], for which the protein stability index was found to be 3.64.
GSLPWQGLKAKTLKERYQKIGDTK [D11K]: the protein stability index was 3.93.
Regarding GSLPWQGLKAETLKERYQKIGDTK [D11E], the protein stability index stood at 4.13.
The figure for GSLPWQGLKAFTLKERYQKIGDTK [D11F] is 2.89; for GSLPWQGLKAYTLKERYQKIGDTK [D11Y] it is 3.44.
The figure for GSLPWQGLKAQTLKERYQKIGDTK [D11Q] is 3.56; for GSLPWQGLKALTLKERYQKIGDTK [D11L] it is 3.76.
In the case of GSLPWQGLKASTLKERYQKIGDTK [D11S] it was 4.11; in that of GSLPWQGLKADTLKERYIKIGDTK [Q18I], 3.57.
With GSLPWQGLKADTLKERYAKIGDTK [Q18A], the protein stability index amounted to 4.46.
In the case of GSLPWQGLKADTLKERYWKIGDTK [Q18W], the protein stability index is 3.34.
With GSLPWQGLKADTLKERYPKIGDTK [Q18P], the protein stability index was 4.66.
With GSLPWQGLKADTLKERYMKIGDTK [Q18M], the protein stability index was found to be 3.64.
For GSLPWQGLKADTLKERYHKIGDTK [Q18H], the protein stability index came to 4.09.
On to GSLPWQGLKADTLKERYVKIGDTK [Q18V], for which the protein stability index turned out to be 3.64.

The record behind these values is the supplement of paper PMC10567573.
